Measured values taken from the supplement of paper PMC10266784.

B1: library; numbered along this chain (parent)
chain: MAAAAAAAAEQQSSNGPVKKSMREKAVERRSVNKEHNSNFKAGYIPIDEDRLHKTGLRGRKGNLAICVIILLFILAVINLIITLVIWAVIRIGPNGCDSMEFHESGLLRFKQVSDMGVIHPLYKSTVGGRRNENLVITGNNQPIVFQQGTTKLSVENNKTSITSDIGMQFFDPRTQNILFSTDYETHEFHLPSGVKSLNVQKASTERITSNATSDLNIKVDGRAIVRGNEGVFIMGKTIEFHMGGNMELKAENSIILNGSVMVSTTRLPSSSSGDQLGSGDWVRYKLCMCADGTLFKVQVTSQNMGCQISDNPCGNTH

Variants of: B1
Assay: SGCB cell-surface expression functional score (HA stain, bin4 vs bin1, normalised to synonymous) (log10 ratio); higher = more cell-surface SGCB (functional)
Outline: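 Sorting and sequencing yield the functional score, defined as the log ratio of a variant's highest-bin frequency to its lowest-bin frequency, with the median taken over codons and replicate transductions. The libraries, codon-saturation sets of HA-tagged, YFP-fused human beta-sarcoglycan, went into HEK293 cells stably carrying alpha-, gamma- and delta-sarcoglycan by duplicate lentiviral transduction at MOI <0.1. Cells were stained on ice with Alexa Fluor 647 anti-HA, fixed and split into four 5% intensity bins, and synonymous variants were scaled per section to mean 0, SD 0.5.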

MAAAAAAAAEQQSSNGPVKKSMREKAVERRSVNKEHNSNFKAGYIPIDEDRLHKTGLRGRKGNLAICVIILLFILAVINLIITLVIWAVIRIGPNGCDSMEFHESGLLRFKQVSDMGVIHPLYKSTVGGRRNENLVITGNNQPIVFQQGTTKLSVENNKTSITSDIGMQFFDPRTQNILFSTDYETHEFHLPSGVKSLNVQKASTERITSNATSDLNIKVDGRAIVRGNEGVFIMGKTIEFHMGGNMELKAENSIIFNGSVMVSTTRLPSSSSGDQLGSGDWVRYKLCMCADGTLFKVQVTSQNMGCQISDNPCGNTH [L257F] and MAAAAAAAAEQQSSNGPVKKSMREKAVERRSVNKEHNSNFKAGYIPIDEDRLHKTGLRGRKGNLAICVIILLFILAVINLIITLVIWAVIRIGPNGCDSMEFHESGLLRFKQVSDMGVIHPLYKSTVGGRRNENLVITGNNQPIVFQQGTTKLSVENNKTSITSDIGMQFFDPRTQNILFSTDYETHEFHLPSGVKSLNVQKASTERITSNATSDLNIKVDGRAIVRGNEGVFIMGKTIEFHMGGNMELKAENSIIVNGSVMVSTTRLPSSSSGDQLGSGDWVRYKLCMCADGTLFKVQVTSQNMGCQISDNPCGNTH [L257V] are within 0.2 log units of each other in “SGCB cell-surface expression functional score (log10)” value: 0.54 for the first, 0.45 for the second.

Compared with MAAAAAAAAEQQSSNGPVKKSMREKAVERRSVNKEHNSNFKAGYIPIDEDRLHKTGLRGRKGNLAICVIILLFILAVINLIITLVIWAVIRIGPNGCDSMEFHESGLLRFKQVSDMGVIHPLYKSTVGGRRNENLVITGNNQPIVFQQGTTKLSVENNKTSITSDIGMQFFDPRTQNILFSTDYETHEFHLPSGVKSLNVQKASTERITSNATSDLNIKVDGRAIVRGNEGVFIMGKTIEFHMGGNMELKAENSIIPNGSVMVSTTRLPSSSSGDQLGSGDWVRYKLCMCADGTLFKVQVTSQNMGCQISDNPCGNTH [L257P], MAAAAAAAAEQQSSNGPVKKSMREKAVERRSVNKEHNSNFKAGYIPIDEDRLHKTGLRGRKGNLAICVIILLFILAVINLIITLVIWAVIRIGPNGCDSMEFHESGLLRFKQVSDMGVIHPLYKSTVGGRRNENLVITGNNQPIVFQQGTTKLSVENNKTSITSDIGMQFFDPRTQNILFSTDYETHEFHLPSGVKSLNVQKASTERITSNATSDLNIKVDGRAIVRGNEGVFIMGKTIEFHMGGNMELKAENSIIDNGSVMVSTTRLPSSSSGDQLGSGDWVRYKLCMCADGTLFKVQVTSQNMGCQISDNPCGNTH [L257D] is higher in “SGCB cell-surface expression functional score (log10)” value: -0.89 for the first, -0.5 for the second.

First: MAAAAAAAAEQQSSNGPVKKSMREKAVERRSVNKEHNSNFKAGYIPIDEDRLHKTGLRGRKGNLAICVIILLFILAVINLIITLVIWAVIRIGPNGCDSMEFHESGLLRFKQVSDMGVIHPLYKSTVGGRRNENLVITGNNQPIVFQQGTTKLSVENNKTSITSDIGMQFFDPRTQNILFSTDYETHEFHLPSGVKSLNVQKASTERITSNATSDLNIKVDGRAIVRGNEGVFIMGKTIEFHMGGNMELKAENSIIHNGSVMVSTTRLPSSSSGDQLGSGDWVRYKLCMCADGTLFKVQVTSQNMGCQISDNPCGNTH [L257H]
Second: MAAAAAAAAEQQSSNGPVKKSMREKAVERRSVNKEHNSNFKAGYIPIDEDRLHKTGLRGRKGNLAICVIILLFILAVINLIITLVIWAVIRIGPNGCDSMEFHESGLLRFKQVSDMGVIHPLYKSTVGGRRNENLVITGNNQPIVFQQGTTKLSVENNKTSITSDIGMQFFDPRTQNILFSTDYETHEFHLPSGVKSLNVQKASTERITSNATSDLNIKVDGRAIVRGNEGVFIMGKTIEFHMGGNMELKAENSIIKNGSVMVSTTRLPSSSSGDQLGSGDWVRYKLCMCADGTLFKVQVTSQNMGCQISDNPCGNTH [L257K]
The “SGCB cell-surface expression functional score (log10)” value of the first is lower: -0.81 for the first, -0.27 for the second.

First: MAAAAAAAAEQQSSNGPVKKSMREKAVERRSVNKEHNSNFKAGYIPIDEDRLHKTGLRGRKGNLAICVIILLFILAVINLIITLVIWAVIRIGPNGCDSMEFHESGLLRFKQVSDMGVIHPLYKSTVGGRRNENLVITGNNQPIVFQQGTTKLSVENNKTSITSDIGMQFFDPRTQNILFSTDYETHEFHLPSGVKSLNVQKASTERITSNATSDLNIKVDGRAIVRGNEGVFIMGKTIEFHMGGNMELKAENSIICNGSVMVSTTRLPSSSSGDQLGSGDWVRYKLCMCADGTLFKVQVTSQNMGCQISDNPCGNTH [L257C]
Second: MAAAAAAAAEQQSSNGPVKKSMREKAVERRSVNKEHNSNFKAGYIPIDEDRLHKTGLRGRKGNLAICVIILLFILAVINLIITLVIWAVIRIGPNGCDSMEFHESGLLRFKQVSDMGVIHPLYKSTVGGRRNENLVITGNNQPIVFQQGTTKLSVENNKTSITSDIGMQFFDPRTQNILFSTDYETHEFHLPSGVKSLNVQKASTERITSNATSDLNIKVDGRAIVRGNEGVFIMGKTIEFHMGGNMELKAENSIIQNGSVMVSTTRLPSSSSGDQLGSGDWVRYKLCMCADGTLFKVQVTSQNMGCQISDNPCGNTH [L257Q]
The “SGCB cell-surface expression functional score (log10)” value of the first is higher: -0.27 for the first, -1.3 for the second.

With MAAAAAAAAEQQSSNGPVKKSMREKAVERRSVNKEHNSNFKAGYIPIDEDRLHKTGLRGRKGNLAICVIILLFILAVINLIITLVIWAVIRIGPNGCDSMEFHESGLLRFKQVSDMGVIHPLYKSTVGGRRNENLVITGNNQPIVFQQGTTKLSVENNKTSITSDIGMQFFDPRTQNILFSTDYETHEFHLPSGVKSLNVQKASTERITSNATSDLNIKVDGRAIVRGNEGVFIMGKTIEFHMGGNMELKAENSIIMNGSVMVSTTRLPSSSSGDQLGSGDWVRYKLCMCADGTLFKVQVTSQNMGCQISDNPCGNTH [L257M] the “SGCB cell-surface expression functional score (log10)” value was 0.
